# Data reported in patent publication US20260055369A1 (H LEE MOFFITT CANCER CENTER AND RESEARCH INSTITUTE, published 2026).
# T1: hNotch2 (EGF6-13, residues 221-530), biotinylated (human, UniProt Q04721 221-530, Biotinylated in vitro by BirA at the C-terminal BAP-tag (tag not in the letters).)
# T1 construct: Immobilised on a streptavidin chip for SPR
# T1 sequence: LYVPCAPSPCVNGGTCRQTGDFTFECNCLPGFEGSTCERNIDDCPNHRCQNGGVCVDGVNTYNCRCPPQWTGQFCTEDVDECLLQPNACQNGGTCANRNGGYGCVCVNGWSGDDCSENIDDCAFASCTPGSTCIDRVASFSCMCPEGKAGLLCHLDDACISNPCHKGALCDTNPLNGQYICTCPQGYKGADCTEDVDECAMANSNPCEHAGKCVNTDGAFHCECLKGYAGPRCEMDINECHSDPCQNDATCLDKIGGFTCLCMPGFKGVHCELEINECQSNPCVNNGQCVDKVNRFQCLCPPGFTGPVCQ
# T2: hNotch3 (EGF5-12, residues 197-505), biotinylated (human, UniProt Q9UM47 197-505, Biotinylated in vitro by BirA at the C-terminal BAP-tag (tag not in the letters).)
# T2 construct: Immobilised on a streptavidin chip for SPR
# T2 sequence: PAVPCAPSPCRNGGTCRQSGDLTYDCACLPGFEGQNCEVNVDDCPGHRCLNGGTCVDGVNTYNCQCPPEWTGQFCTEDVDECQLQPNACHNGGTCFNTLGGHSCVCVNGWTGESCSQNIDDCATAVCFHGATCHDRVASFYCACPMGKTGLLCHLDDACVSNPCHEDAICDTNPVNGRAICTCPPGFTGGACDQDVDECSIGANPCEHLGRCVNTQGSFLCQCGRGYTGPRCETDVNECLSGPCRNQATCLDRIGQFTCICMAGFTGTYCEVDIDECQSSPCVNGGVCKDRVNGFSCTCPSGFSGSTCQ
# T3: hNotch4 (EGF7-12, residues 276-511), biotinylated (human, UniProt Q99466 276-511, Biotinylated in vitro by BirA at the C-terminal BAP-tag (tag not in the letters).)
# T3 construct: Immobilised on a streptavidin chip for SPR; also called Notch4 (7-12)
# T3 sequence: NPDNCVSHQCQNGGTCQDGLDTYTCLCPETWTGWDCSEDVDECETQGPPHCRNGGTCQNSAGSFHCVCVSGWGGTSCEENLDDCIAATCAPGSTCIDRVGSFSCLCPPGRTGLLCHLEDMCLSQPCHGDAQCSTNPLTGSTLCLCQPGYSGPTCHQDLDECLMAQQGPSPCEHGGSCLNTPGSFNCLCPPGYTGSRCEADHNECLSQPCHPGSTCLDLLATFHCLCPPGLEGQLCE
# B1: Delta^MAX (N-EGF5), non-biotinylated (ligand)
# chain: SSVFQLQLQEFINERGVLASGRPCEPGCRTFFRVCLKHFQAVVSPGPCTFGTVSTPVLGTNSFAVRDDSSGGGRNPLQLPLNFTWPGTFSLIIEAWHAPGDDLRPEALPPDALISKFAIQGSLAVGQNWLLDEQTSTLTRLRYSYRVICSDNYYGDNCSRLCKKRNDYFGHYVCQPDGNPSCLPGWTGEYCQQPICLSGCHEQNGYCSKPAECLCRPGWQGRLCNECIPHPGCRHGTCSTPWQCLCDEGWGGLYCDQDLNYCTHHSPCKNGATCRNSGPRSYTCTCRPGYTGVDCELELSECDSNPCRNGGSCKDQEDGYHCLCPPGYYGLHCEHSTLSCADSPCFNGGSCRERNQGANYACECPPNFTGSNCEHHHHHHHH
# notes: also called DLL4^MAX; soluble Delta^MAX
# Experiments:
# [1] = molecular target: Notch1 on CHO-K1 N1-Gal4 fluorescent reporter cells (UniProt P46531 19-2555, limits assumed); assay: cell-based or functional assay
# Chain of Notch1 on CHO-K1 N1-Gal4 fluorescent reporter cells (P46531 19-2555 limits assumed): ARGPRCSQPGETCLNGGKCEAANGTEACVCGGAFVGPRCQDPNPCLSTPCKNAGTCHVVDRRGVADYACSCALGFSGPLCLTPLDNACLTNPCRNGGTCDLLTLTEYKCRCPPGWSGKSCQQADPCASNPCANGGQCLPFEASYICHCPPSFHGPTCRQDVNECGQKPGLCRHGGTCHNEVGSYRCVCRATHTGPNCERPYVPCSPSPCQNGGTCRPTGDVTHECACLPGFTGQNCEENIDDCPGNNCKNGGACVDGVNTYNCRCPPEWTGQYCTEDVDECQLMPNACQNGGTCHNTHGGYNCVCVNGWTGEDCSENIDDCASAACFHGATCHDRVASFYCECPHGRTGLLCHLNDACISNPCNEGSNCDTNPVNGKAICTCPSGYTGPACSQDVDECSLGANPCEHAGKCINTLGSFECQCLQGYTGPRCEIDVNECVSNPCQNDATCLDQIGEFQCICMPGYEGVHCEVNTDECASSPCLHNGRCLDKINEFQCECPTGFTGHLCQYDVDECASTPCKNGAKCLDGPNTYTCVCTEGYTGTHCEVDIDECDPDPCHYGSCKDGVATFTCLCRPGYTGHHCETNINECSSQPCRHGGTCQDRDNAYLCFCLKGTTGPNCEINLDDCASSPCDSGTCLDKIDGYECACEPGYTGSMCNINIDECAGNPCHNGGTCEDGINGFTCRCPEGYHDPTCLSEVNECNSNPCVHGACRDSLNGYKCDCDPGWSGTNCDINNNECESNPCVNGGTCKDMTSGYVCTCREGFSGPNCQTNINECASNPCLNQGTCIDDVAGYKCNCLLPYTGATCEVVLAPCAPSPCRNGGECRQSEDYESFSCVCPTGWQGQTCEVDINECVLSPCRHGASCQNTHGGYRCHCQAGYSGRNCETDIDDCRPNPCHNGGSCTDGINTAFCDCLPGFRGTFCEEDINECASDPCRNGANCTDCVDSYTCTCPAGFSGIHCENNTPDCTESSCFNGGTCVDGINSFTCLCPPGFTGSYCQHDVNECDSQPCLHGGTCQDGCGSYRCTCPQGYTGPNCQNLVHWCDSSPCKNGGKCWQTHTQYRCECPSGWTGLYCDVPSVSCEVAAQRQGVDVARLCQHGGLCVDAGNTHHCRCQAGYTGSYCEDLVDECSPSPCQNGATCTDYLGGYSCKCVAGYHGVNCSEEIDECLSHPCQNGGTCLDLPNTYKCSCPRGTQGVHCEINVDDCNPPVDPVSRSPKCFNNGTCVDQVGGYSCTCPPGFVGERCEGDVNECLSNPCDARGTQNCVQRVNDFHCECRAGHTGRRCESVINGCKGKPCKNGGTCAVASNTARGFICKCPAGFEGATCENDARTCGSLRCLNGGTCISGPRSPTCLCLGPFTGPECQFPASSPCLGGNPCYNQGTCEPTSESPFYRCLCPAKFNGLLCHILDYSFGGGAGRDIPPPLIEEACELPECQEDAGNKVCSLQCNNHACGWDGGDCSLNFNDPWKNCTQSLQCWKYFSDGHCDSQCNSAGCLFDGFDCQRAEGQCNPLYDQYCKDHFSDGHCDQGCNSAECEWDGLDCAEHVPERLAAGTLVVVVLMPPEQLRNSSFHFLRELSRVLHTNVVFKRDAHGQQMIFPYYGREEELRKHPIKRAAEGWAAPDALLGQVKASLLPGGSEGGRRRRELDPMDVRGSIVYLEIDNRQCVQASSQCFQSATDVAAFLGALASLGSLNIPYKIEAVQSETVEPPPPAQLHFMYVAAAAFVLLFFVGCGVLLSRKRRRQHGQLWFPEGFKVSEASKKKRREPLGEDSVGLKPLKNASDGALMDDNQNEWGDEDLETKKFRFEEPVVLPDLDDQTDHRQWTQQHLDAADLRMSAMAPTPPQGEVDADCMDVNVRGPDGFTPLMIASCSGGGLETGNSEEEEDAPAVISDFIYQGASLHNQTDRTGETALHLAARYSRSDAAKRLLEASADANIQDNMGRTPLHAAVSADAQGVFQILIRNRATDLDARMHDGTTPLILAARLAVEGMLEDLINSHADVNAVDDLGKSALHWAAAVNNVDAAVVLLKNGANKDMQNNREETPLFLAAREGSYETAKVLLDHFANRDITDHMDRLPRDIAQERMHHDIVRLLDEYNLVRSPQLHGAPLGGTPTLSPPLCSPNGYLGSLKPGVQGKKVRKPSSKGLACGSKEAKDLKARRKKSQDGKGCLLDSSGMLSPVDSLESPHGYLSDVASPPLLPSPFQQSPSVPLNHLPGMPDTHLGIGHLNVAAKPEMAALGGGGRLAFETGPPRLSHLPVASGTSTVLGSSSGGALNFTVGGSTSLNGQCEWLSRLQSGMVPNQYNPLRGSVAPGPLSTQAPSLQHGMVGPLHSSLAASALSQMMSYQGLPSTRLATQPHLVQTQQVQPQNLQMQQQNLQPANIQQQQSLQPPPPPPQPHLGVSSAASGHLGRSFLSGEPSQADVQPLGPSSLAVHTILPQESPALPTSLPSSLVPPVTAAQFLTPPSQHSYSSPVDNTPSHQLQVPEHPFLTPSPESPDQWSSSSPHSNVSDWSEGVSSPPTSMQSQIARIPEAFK
# [2] = molecular target: Notch1 on U2OS hNotch1-Gal4 luciferase reporter cells (human, UniProt P46531 19-2555); assay: cell-based or functional assay
# Chain of Notch1 on U2OS hNotch1-Gal4 luciferase reporter cells (P46531 19-2555): as the sequence (P46531 19-2555 limits assumed) above
# [3] = molecular target: T1, hNotch2 (EGF6-13, residues 221-530), …; assay: SPR, KD of Delta^MAX against KD of WT DLL4
# Protocol: (§1) Surface plasmon resonance (SPR) was used to determine the binding affinity between Delta^MAX and the ligand-binding regions of Notch1-4. As a basis for comparison, a WT DLL4 construct, a DLL4.v2 construct, and a “DLL4.v1” construct containing the five E12 mutations (G28S, F107L, N118I, H194Y, and L206P) were also generated (FIG. 2A, 10). […] The rapid dissociation of WT DLL4 precluded kinetic fitting of the binding data.
# (§2) Equilibrium dissociation constants were determined by surface plasmon resonance using a Biacore T200 instrument (GE Healthcare). Approximately 100 resonance units (RU) of biotinylated Notch extracellular fragments (Notch1 (EGF6-13), Notch2 (EGF6-13), Notch3 (EGF5-12), Notch4 (7-12), and mouse Notch1 (EGF6-13)) were immobilized on individual flow cells at 5 μl/min using a streptavidin-coated sensor chip (Series S Sensor chip SA, GE Healthcare). Three-fold serial dilutions of recombinant DLL4 proteins (N-EGF5) starting at 50 μM (WT DLL4), 18 μM (DLL4.v2), and 6 μM (DLL4.v1 and Delta^MAX) were flowed over the chip at 25° C. in SPR buffer (20 mM HEPES pH 7.4, 150 mM NaCl, 1 mM calcium chloride, 0.1% BSA supplemented with 0.005% surfactant P20). Association (“on-rate”) and dissociation (“off-rate”) phases were performed at 10 μl/min for 120 seconds and 300 seconds, respectively. […] Data collection rate was performed at 10 Hz, and curves were reference-subtracted from a flow cell containing 100 RU of a negative control non-related protein (biotinylated mouse RNF43 PA domain).
# [4] = molecular target: T2, hNotch3 (EGF5-12, residues 197-505), …; assay: SPR, KD of Delta^MAX against KD of WT DLL4
# Protocol: as §1, §2
# [5] = molecular target: T2, hNotch3 (EGF5-12, residues 197-505), …; assay: SPR (Biacore T200), biotinylated Notch fragment on streptavidin chip, DLL4 protein (N-EGF5) in flow, 1:1 model
# Protocol: (§3) The rapid dissociation of WT DLL4 precluded kinetic fitting of the binding data.
# (§4) Equilibrium dissociation constants were determined by surface plasmon resonance using a Biacore T200 instrument (GE Healthcare). Approximately 100 resonance units (RU) of biotinylated Notch extracellular fragments (Notch1 (EGF6-13), Notch2 (EGF6-13), Notch3 (EGF5-12), Notch4 (7-12), and mouse Notch1 (EGF6-13)) were immobilized on individual flow cells at 5 μl/min using a streptavidin-coated sensor chip (Series S Sensor chip SA, GE Healthcare). Three-fold serial dilutions of recombinant DLL4 proteins (N-EGF5) starting at 50 μM (WT DLL4), 18 μM (DLL4.v2), and 6 μM (DLL4.v1 and Delta^MAX) were flowed over the chip at 25° C. in SPR buffer (20 mM HEPES pH 7.4, 150 mM NaCl, 1 mM calcium chloride, 0.1% BSA supplemented with 0.005% surfactant P20). Association (“on-rate”) and dissociation (“off-rate”) phases were performed at 10 μl/min for 120 seconds and 300 seconds, respectively. […] Data collection rate was performed at 10 Hz, and curves were reference-subtracted from a flow cell containing 100 RU of a negative control non-related protein (biotinylated mouse RNF43 PA domain). The maximum RU for each experiment was normalized to a value of 100% and plotted as a function of concentration using Prism 9 software (GraphPad). Steady-state binding and kinetic curves were fitted using the Biacore T200 evaluation software to a 1:1 Langmuir model to determine the KD values.
# [6] = molecular target: T3, hNotch4 (EGF7-12, residues 276-511), …; assay: as above
# Protocol: as §3, §4
binder,measurement,setting,value
B1,"EC50 of Notch1 activation, fluorescent reporter cells, ligand non-specifically adsorbed to plates",[1],0.009 ng/mm^2
same,IC50 of inhibition of Notch1 activation on WT DLL4-coated plates (comparison with DAPT and BB-94),[1],1 nM
same,IC50 of inhibition of Notch1 reporter signalling in co-culture with HEK293T cells expressing WT DLL4,[1],400 nM
same,IC50 of inhibition of Notch1 reporter signalling on WT DLL4-coated plates,[1],0.6 nM
same,improvement in Notch activation efficiency against WT DLL4 (adsorbed ligand),[1],250 fold
same,"increase in Notch1 activation relative to control, non-specific adsorption",[2],23 fold
same,fold enhancement of affinity compared to WT DLL4,[3],670 fold
same,fold enhancement of affinity compared to WT DLL4,[4],591 fold
same,Kd,[5],49 nM
same,Kd,[6],24 nM
